Assay results published in article PMC5508133.

Target: PfEMP1B (GFP-tagged minimal PfEMP1 construct) (P. falciparum)
Assay: co-IP; GFP-Trap on parasite lysates crosslinked with increasing concentrations of DSP; 1% Triton X-100, 150 mM NaCl, 50 mM Tris-HCl pH 7.4; western blot of eluates

B1: ring-exported protein-1 (REX1) (natural protein)
chain: MADYSSNEEETPKEEKKISKLEDMQSPFDYKRFFRKYTIFAPFILVYFTLMFFVNSTVQNGTMLLNSIKENANSKLPALLWNKIIGKGNDNEVNFEDKKMIEGNKSGNGEEHNKHKRRQVDNQEDDYDVDEYGNPKSGAPYKSEEEHAEQQNYYGEHHGDYEDKNEYHGKSNIENNKDFPEQGQKDEEKEKEAKKKAEEFEKRKQLHEEEKRKARETQQALHKKLQEQLQRLKEQEKKKVEHQKLIHKIKTQGDVDPAVQKVLNKYNQKEKDEEQQILKIRDLQVQLRHIQQRIQSLKSTNNGQPKTKDEYLQLKDLQKEYYDKEQDEQNMIEHLEHLQGEMQYLYEELQIVYDENQAKTAQAKDEQHELKPQAEKDASKLTTTYDQTKEVKPQAEKDASKLTTTYDQTKEVKPQAEKDASKLTTTYDQTKEVKPQAEKDALAKTENQNGELLPQAEKDASKLTTTYDQTKEVKPQAEKDALAKTENQNGELLPQAEKDASKLTTTYDQTKEVKPQAEKDALAKTENQNGELLPQAEKDASKLTTTYDQTKEVKPQAEKDALAKTENQSGELLTQAEKDALAKKESEAPKGSSTSDKNTTENQLNAEAQSEVKPQWQKDYWKSKNESQTETNNTWKKDSWKKKTEEQQNAEAQQEVKSPYEKYSYNKETKPQNDKYTLNKEVKPQNEKYTYNQKVKAENTESEKSLLESSVFN
  fold increase of pull-down in the presence of DSP: > 10 fold
